Laboratory results taken from patent US20220325265A1, “GLUCOCEREBROSIDASE MUTANTS” (Hoffmann-la Roche Inc., priority 2019, published 2022).
Changes are numbered by the printed parent chain. Names and notes keep the numbering of the source.

B1: L34Q: recombinant human β-glucocerebrosidase variant R495H/L34Q, S2 cells; Seq. Id. No. 6 (protein, listed as Homo sapiens)
chain: ARPCIPKSFGYSSVVCVCNATYCDSFDPPTFPAQGTFSRYESTRSGRRMELSMGPIQANHTGTGLLLTLQPEQKFQKVKGFGGAMTDAAALNILALSPPAQNLLLKSYFSEEGIGYNIIRVPMASCDFSIRTYTYADTPDDFQLHNFSLPEEDTKLKIPLIHRALQLAQRPVSLLASPWTSPTWLKTNGAVNGKGSLKGQPGDIYHQTWARYFVKFLDAYAEHKLQFWAVTAENEPSAGLLSGYPFQCLGFTPEHQRDFIARDLGPTLANSTHHNVRLLMLDDQRLLLPHWAKVVLTDPEAAKYVHGIAVHWYLDFLAPAKATLGETHRLFPNTMLFASEACVGSKFWEQSVRLGSWDRGMQYSHSIITNLLYHVVGWTDWNLALNPEGGPNWVRNFVDSPIIVDITKDTFYKQPMFYHLGHFSKFIPEGSQRVGLVASQKNDLDAVALMHPDGSAVVVVLNRSSKDVPLTIKDPAVGFLETISPGYSIHTYLWHRQ
notes: recombinant human β-glucocerebrosidase variant R495H/L34Q, S2 cells; Id; No. 6
B2: imiglucerase (protein, UniProt P04062 40-536, looked up, variant R495H)
Lysosomal acid …: B1 chain with Q34L
modifications: imiglucerase; CHO-produced
notes: Commercially available Cerezyme (imiglucerase, Genzyme), hGCase R495H produced in CHO cells
B3: I5N: recombinant human β-glucocerebrosidase variant R495H/I5N, S2 cells; Seq. Id. No. 4 (protein, listed as Homo sapiens)
chain: B1 chain with I5N, Q34L
notes: recombinant human β-glucocerebrosidase variant R495H/I5N, S2 cells; Id; No. 4

How the values were obtained:
[1] = pH screening of hGCase variants (activity assay, pH 3.5-8); type: biochemical; details: for relative activity: highest activity = 100%
Method: (§1) For all further GCase characterization experiments including the activity assay, 20 μM substrate concentration, 30-40 min incubation time and protein concentrations ranging from 25-100 nM were set as final assay settings to ensure measurements in the linear range. The overall DMSO concentration within the assay was kept at 0.5% (v/v) or even below, since DMSO influences the fluorescent signal with higher concentrations (experimentally tested, data not shown; confirmed by (Urban et al., 2008). Therefore, GCase activity buffer+1% (v/v) DMSO was also used for dilutions (table 2.9). The plate reader SpectraMax i3 (Molecular Devices) including the analysis software SoftMax Pro 6.4 was used for all activity measurements within this work. The program settings were kept the same for all activity runs: kinetic run, measurement temperature: 37° C., PMT Gain: high; flashes per read: 6; read height: 0.73305 mm from plate.
A pH optimum screening was done to observe a possible shift in the pH spectrum of the new variants due to structural modification of the enzymes. Therefore, three different buffers were used, covering a pH range of pH 3.5 to 8. For the screening, buffer substances were chosen after the use for purification buffers. Therefore, following buffers were prepared: Citric acid buffer (20 mM, pH 3.5-5), MES buffer (20 mM, pH 6-6.5) and HEPES buffer (20 mM, pH 7-8). The final protein concentration used for this assay was 75 nM. The activity assay was done as described in section 2.3.5 (table 2.11), merely the buffer was varied.
A possible pH optimum shift due to structural modifications should be examined. Since the GCase enzyme originally occurs within the lysosome, its natural pH optimum is reported to be between pH 4.7-6.0 (Lieberman et al., 2007; Liou et al., 2006; Tan et al., 2014). This could change when including slight modifications in the structure of the molecule. Thus, the mutants were tested within a pH range of 3.5 to 8 for enzymatic activity.

[2] = Thermal shift assay via nanoDSF measurement (unfolding temperature); type: physicochemical; details: Prometheus NT.Plex, 3° C./min, 0.06-0.5 mg/ml
Method: The thermal shift assay was performed via nanoDSF (differential scanning fluorimetry) measurements using Prometheus NT.Plex nanoDSF (NanoTemper Technologies). The measurement was initialized using the software PR.ThermoControl. Prometheus can precisely characterize samples by measuring the thermal unfolding, chemical denaturation and aggregation within one single run (NanoTemper Technologies, 2019). By gradually heating the sample until reaching 95° C., the protein unfolds. Thereby, the chemical environment of tryptophan residues changes (change in intrinsic tryptophan fluorescence of protein due to more aqueous environment), causing a red-shift in fluorescence (tryptophan fluorescence emission shift). By plotting the fluorescence ratio 350/330 nm against the temperature, the melting temperature Tm can be determined. Calculating the first derivative of raw data gives a peak curve with its maximum indicating the unfolding temperature Tm.
For the sample preparation, a concentration of 0.5 mg/ml was adjusted for the hGCase mutants. For variant I5N and R495HS2, protein concentrations of 0.075 mg/ml (I5N) and 0.06 mg/ml (R495HS2) were applied due to low protein yields. 15 μl total sample volume was uptaken in each capillary of the capillary rack (Prometheus NT.Plex Capillary Chips, NanoTemper) and placed in the device. The excitation power was adjusted to 20-80%, depending on the applied protein concentration. The gradually heating was set to 3° C./min until reaching 95° C. (20° C. was set as starting temperature). The evaluation and calculation of the first derivative was done using the NanoTemper PR.ThermoControl software, the final evaluation and graphing was done using the PR.StabilityAnalysis software.
On the one hand, a successively increasing temperature gradient was applied to measure melting temperatures of protein molecules via nanoDSF (differential scanning fluorimetry) measurement using Prometheus NT.Plex (NanoTemper Technologies, 2019). The sample is gradually heated by increasing the temperature until reaching 95° C. Thereby, the protein unfolds and tryptophan residues experience a change in chemical environment (exposure to a more aqueous environment), which changes the intrinsic tryptophan fluorescence of the protein, causing a red shift in the fluorescent spectrum (350/330 nm=tryptophan fluorescence emission shift) (Schubert, 2015). In FIG. 1, typical melting curves of such an unfolding experiment are shown.
In the upper section of the graphs (FIGS. 1 (A) and (B)), the raw data (progression curves) measured with nanoDSF is plotted, indicating the shift in the fluorescence ratio 350/330 nm during the course of the measurement with increasing temperature. The calculation of the first derivative, giving peak curves (lower section of graphs in (A) and (B)), was done according to default settings of the Software PR.StabilityAnalysis (table 2). Peak maxima (thermal unfolding transition midpoint) indicate the unfolding temperature Tm, where half of the proteins are unfold (Schubert, 2015).

[3] = Heat inactivation at 55° C., residual GCase activity of purified protein; type: physicochemical; details: for residual GCase activity after heat inactivation: 55° C. waterbath, 50 nM protein, initial activity = 100%
Method: as §1
Another approach to test the mutants for thermal stability is the irreversible heat inactivation at 55° C. (Futami et al., 2017; Zale & Klibanov, 1986). As initial screening to select for most promising candidates, this thermal stability approach was chosen (section 3.1.1). For this, supernatant samples of each construct were taken from the 30 ml S2 cell cultures, respectively (section 2.2). The protein concentration was not adjusted. The samples were incubated for 40 min in total at 55° C. (PCR Cycler Mastercycler gradient, Eppendorf) using PCR plates (FrameStar®96 well skirted PCR plate, 4titude Ltd.). Samples were taken after 5, 7, 10, 15, 20, 30 and 40 min for residual activity measurements. The activity assay was performed as described in section 2.3.5. The initial activity of each mutant was set to 100% before heating. Residual activities were calculated in regard to the initial activity. Data points were fitted using the one phase decay fit by GraphPad Prism7 following equation 3: […]
For the heat inactivation experiment of purified protein (see section 3.3.3), hGCase protein samples were prepared with a final concentration of 50 nM, diluted in hGCase activity buffer, pH 6.0 (table 2.9) and incubated for 5 and 10 minutes in the waterbath (Julabo 5A, Julabo) at 55° C.
The second approach was aimed to test residual GCase activity after thermal inactivation at a fixed temperature. With this additional approach, the focus was set on activity-based changes with increased incubation time (Futami et al., 2017; Zale & Klibanov, 1986). Here, samples were incubated for 5 and 10 minutes in the waterbath at 55° C. Residual GCase activities were measured with the initial activity set to 100% (before heating). FIG. 2 depicts calculated residual activities for tested mutants after incubation.

[4] = pH 3.5, 20 mM citric acid buffer

Molecule	relative activity [1, 4]	pH optimum ([1]; pH range 3.5-8, 75 nM protein, 100% relative activity)	unfolding temperature Tm [2]	residual GCase activity after heat inactivation ([3]; 10 min incubation)	loss of activity [1, 4]	residual activities after 5 and 10 min of incubation (in words) ([3]; 55° C., compared to R495HS2)	activity at pH 8 ([1]; pH 8, 20 mM HEPES buffer)	residual GCase activity after heat inactivation ([3]; 5 min incubation)
B1	~80%	6 pH	55.2 ± 0.0 °C	~27%				
B2			55.2 ± 0.0 °C		40%	rapidly lose its initial activity but retained residual activity with further incubation		
B3	75%		54.8 ± 0.4 °C	16%			completely inactive	31%
